Experimental findings from PMC7609443, “Complement C1q Interacts With LRP1 Clusters II and IV Through a Site Close but Different From the Binding Site of Its C1r and C1s-Associated Proteases” (Frontiers in Immunology, 2020) are described below.

B1: Soluble LRP1 cluster II (domain or fragment, human)
chain: AIDAGSPQCQPGEFACANSRCIQERWKCDGDNDCLDNSDEAPALCHQHTCPSDRFKCENNRCIPNRWLCDGDNDCGNSEDESNATCSARTCPPNQFSCASGRCIPISWTCDLDDDCGDRSDESASCAYPTCFPLTQFTCNNGRCININWRCDNDNDCGDNSDEAGCSHSCSSTQFKCNSGRCIPEHWTCDGDNDCGDYSDETHANCTNQATRPPGGCHTDEFQCRLDGLCIPLRWRCDGDTDCMDSSDEKSCEGVTHVCDPSVKFGCKDSARCISKAWVCDGDNDCEDNSDEENCESLACRPPSHPCANNTSVCLPPDKLCDGNDDCGDGSDEGELC
notes: four amino acids naturally located in full-length LRP1 after the cleavage site of the signal peptide; numbers count on: the mature protein; introduced by the cloning process (BamHI site); LRP1 cluster II, 8 CR modules (CR3-10), human; Secreted with the LRP1 signal peptide, which is cleaved; Glycosylated: 50,372 Da by MALDI; also called CR3-10
B2: Receptor-associated protein (RAP) (natural protein, UniProt P30533 35-357, looked up)
chain: YSREKNQPKPSPKRESGEEFRMEKLNQLWEKAQRLHLPPVRLAELHADLKIQERDELAWKKLKLDGLDEDGEKEARLIRNLNVILAKYGLDGKKDARQVTSNSLSGTQEDGLDDPRLEKLWHKAKTSGKFSGEELDKLWREFLHHKEKVHEYNVLLETLSRTEEIHENVISPSDLSDIKGSVLHSRHTELKEKLRSINQGLDRLRRVSHQGYSTEAEFEEPRVIDLWDLAQSANLTDKELEAFREELKHFEAKIEKHNHYQKQLEIAHEKLRHAESVGDGERVSRSREKHALLEGRTKELGYTVKKHLQDLSGRISRARHNEL
notes: receptor-associated protein (RAP), chaperone of 39 kDa of LRP1; Y'; The printed 'Y' may be the first residue of mature RAP (surmise)
B3: Soluble LRP1 cluster IV (domain or fragment)
chain: not shown
notes: four amino acids naturally located in full-length LRP1 after the cleavage site of the signal peptide; numbers count on: the mature protein; introduced by the cloning process (BamHI site); LRP1 cluster IV, 11 CR modules (CR21-31), human; Secreted with the LRP1 signal peptide, which is cleaved; Glycosylated: 62,528 Da by MALDI; also called CR21-31

Common to all, as to conditions: both partners purified
The target in experiment [1] is T1, C1q purified from human serum (human, UniProt P02745 23-245; P02746 28-253; P02747 29-245).
T1 construct: complement C1q, A chain, human, from serum; complement C1q, B chain, human, from serum; complement C1q, C chain, human, from serum; also called serum C1q; sC1q; source: purified from human serum; copies: 6 + 6 + 6
Put plainly: SPR; T200; cluster II (1,230 RU) or cluster IV (1,270 RU) immobilised on CM5; serum C1q, CLR or GR injected in 50 mM Tris, 150 mM NaCl, 2 mM CaCl2, 0.05% P20, pH 7.4, 30 µl/min; KD from C1q 0.125-8 nM by steady state analysis; for competition C1q pre-incubated 15 min at 25°C with C1r2s2. Background: SPR reads the build-up and loss of mass on a sensor chip optically.

The target in experiment [2] is T1, C1q purified from human serum. Put plainly: SPR; T200; serum C1q (14,000 RU), rC1q WT (11,000 RU) or rC1qABC (12,300 RU) immobilised on CM5; clusters II and IV injected in 50 mM Tris, 150 mM NaCl, 2 mM CaCl2, 0.05% P20, pH 7.4, 180 s at 30 µl/min; KD by steady state analysis.
Experiment [3] deals with T2, Recombinant C1q (wild type) (UniProt P02745 23-245; P02746 28-253; P02747 29-245).
T2 construct: complement C1q, A chain, recombinant; complement C1q, B chain, recombinant; complement C1q, C chain, recombinant; none of these is told here; also called rC1q WT; wild-type C1q; source: produced and purified as described in Bally et al. (16); copies: 6 + 6 + 6
The description is as above.

Experiment [4] concerns the target T3, C1q mutant LysA59Ala/LysB61Ala/LysC58Ala (UniProt P02745 23-245; P02746 28-253; P02747 29-245, LysA59Ala | LysB61Ala | LysC58Ala).
T3 construct: complement C1q, A chain, recombinant; complement C1q, B chain, recombinant; complement C1q, C chain, recombinant; also called rC1qABC; rC1q ABC; source: produced and purified as described in Bally et al. (16); copies: 6 + 6 + 6
The experiment is described as above.

The experiment “Soluble LRP1 cluster IV” deals with B3. The experiment is described as follows: SPR; BIAcore 3000; full-length (ecto) LRP1 (7,400 RU) or clusters II (2,967 RU), III (3,460 RU), IV (3,396 RU) immobilised on CM5 by amine coupling; RAP 0.25-16 nM injected in 50 mM TEA, 150 mM NaCl, 1 mM CaCl2, 0.005% P20, pH 7.4, 20 µl/min; global fit, 1:1 Langmuir.
The target in the next experiment is T4, Soluble LRP1 cluster III (human, UniProt Q07954 2522-2940).
T4 construct: four amino acids naturally located in full-length LRP1 after the cleavage site of the signal peptide; numbers count on: the mature protein; introduced by the cloning process (BamHI site); LRP1 cluster III, 10 CR modules (CR11-20), human; Secreted with the LRP1 signal peptide, which is cleaved; Glycosylated: 63,734 Da by MALDI; also called CR11-20
T4 sequence (Q07954 other isoform, or with tags, fused parts or gaps): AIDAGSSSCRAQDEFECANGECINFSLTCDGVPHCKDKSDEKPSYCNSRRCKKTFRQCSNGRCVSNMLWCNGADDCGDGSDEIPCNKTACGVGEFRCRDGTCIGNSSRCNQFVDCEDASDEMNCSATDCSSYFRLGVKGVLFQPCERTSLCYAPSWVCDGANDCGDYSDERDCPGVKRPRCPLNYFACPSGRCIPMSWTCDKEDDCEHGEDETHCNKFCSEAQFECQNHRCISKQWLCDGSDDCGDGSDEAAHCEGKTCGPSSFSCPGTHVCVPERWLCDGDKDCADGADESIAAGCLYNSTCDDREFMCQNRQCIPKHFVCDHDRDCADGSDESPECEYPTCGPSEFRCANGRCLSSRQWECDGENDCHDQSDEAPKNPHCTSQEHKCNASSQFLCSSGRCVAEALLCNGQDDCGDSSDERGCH
The experiment is described as above.

The target of experiment [5] is T5, Full-length LRP1 (soluble LRP1) (human, UniProt Q07954 20-4419).
T5 construct: LDL receptor-related protein 1 (LRP1, CD91), soluble form called ecto-LRP1; also called ecto-LRP1; ecto LRP1; source: produced and purified according to De Nardis et al. (15)
T5 sequence (Q07954 20-4419): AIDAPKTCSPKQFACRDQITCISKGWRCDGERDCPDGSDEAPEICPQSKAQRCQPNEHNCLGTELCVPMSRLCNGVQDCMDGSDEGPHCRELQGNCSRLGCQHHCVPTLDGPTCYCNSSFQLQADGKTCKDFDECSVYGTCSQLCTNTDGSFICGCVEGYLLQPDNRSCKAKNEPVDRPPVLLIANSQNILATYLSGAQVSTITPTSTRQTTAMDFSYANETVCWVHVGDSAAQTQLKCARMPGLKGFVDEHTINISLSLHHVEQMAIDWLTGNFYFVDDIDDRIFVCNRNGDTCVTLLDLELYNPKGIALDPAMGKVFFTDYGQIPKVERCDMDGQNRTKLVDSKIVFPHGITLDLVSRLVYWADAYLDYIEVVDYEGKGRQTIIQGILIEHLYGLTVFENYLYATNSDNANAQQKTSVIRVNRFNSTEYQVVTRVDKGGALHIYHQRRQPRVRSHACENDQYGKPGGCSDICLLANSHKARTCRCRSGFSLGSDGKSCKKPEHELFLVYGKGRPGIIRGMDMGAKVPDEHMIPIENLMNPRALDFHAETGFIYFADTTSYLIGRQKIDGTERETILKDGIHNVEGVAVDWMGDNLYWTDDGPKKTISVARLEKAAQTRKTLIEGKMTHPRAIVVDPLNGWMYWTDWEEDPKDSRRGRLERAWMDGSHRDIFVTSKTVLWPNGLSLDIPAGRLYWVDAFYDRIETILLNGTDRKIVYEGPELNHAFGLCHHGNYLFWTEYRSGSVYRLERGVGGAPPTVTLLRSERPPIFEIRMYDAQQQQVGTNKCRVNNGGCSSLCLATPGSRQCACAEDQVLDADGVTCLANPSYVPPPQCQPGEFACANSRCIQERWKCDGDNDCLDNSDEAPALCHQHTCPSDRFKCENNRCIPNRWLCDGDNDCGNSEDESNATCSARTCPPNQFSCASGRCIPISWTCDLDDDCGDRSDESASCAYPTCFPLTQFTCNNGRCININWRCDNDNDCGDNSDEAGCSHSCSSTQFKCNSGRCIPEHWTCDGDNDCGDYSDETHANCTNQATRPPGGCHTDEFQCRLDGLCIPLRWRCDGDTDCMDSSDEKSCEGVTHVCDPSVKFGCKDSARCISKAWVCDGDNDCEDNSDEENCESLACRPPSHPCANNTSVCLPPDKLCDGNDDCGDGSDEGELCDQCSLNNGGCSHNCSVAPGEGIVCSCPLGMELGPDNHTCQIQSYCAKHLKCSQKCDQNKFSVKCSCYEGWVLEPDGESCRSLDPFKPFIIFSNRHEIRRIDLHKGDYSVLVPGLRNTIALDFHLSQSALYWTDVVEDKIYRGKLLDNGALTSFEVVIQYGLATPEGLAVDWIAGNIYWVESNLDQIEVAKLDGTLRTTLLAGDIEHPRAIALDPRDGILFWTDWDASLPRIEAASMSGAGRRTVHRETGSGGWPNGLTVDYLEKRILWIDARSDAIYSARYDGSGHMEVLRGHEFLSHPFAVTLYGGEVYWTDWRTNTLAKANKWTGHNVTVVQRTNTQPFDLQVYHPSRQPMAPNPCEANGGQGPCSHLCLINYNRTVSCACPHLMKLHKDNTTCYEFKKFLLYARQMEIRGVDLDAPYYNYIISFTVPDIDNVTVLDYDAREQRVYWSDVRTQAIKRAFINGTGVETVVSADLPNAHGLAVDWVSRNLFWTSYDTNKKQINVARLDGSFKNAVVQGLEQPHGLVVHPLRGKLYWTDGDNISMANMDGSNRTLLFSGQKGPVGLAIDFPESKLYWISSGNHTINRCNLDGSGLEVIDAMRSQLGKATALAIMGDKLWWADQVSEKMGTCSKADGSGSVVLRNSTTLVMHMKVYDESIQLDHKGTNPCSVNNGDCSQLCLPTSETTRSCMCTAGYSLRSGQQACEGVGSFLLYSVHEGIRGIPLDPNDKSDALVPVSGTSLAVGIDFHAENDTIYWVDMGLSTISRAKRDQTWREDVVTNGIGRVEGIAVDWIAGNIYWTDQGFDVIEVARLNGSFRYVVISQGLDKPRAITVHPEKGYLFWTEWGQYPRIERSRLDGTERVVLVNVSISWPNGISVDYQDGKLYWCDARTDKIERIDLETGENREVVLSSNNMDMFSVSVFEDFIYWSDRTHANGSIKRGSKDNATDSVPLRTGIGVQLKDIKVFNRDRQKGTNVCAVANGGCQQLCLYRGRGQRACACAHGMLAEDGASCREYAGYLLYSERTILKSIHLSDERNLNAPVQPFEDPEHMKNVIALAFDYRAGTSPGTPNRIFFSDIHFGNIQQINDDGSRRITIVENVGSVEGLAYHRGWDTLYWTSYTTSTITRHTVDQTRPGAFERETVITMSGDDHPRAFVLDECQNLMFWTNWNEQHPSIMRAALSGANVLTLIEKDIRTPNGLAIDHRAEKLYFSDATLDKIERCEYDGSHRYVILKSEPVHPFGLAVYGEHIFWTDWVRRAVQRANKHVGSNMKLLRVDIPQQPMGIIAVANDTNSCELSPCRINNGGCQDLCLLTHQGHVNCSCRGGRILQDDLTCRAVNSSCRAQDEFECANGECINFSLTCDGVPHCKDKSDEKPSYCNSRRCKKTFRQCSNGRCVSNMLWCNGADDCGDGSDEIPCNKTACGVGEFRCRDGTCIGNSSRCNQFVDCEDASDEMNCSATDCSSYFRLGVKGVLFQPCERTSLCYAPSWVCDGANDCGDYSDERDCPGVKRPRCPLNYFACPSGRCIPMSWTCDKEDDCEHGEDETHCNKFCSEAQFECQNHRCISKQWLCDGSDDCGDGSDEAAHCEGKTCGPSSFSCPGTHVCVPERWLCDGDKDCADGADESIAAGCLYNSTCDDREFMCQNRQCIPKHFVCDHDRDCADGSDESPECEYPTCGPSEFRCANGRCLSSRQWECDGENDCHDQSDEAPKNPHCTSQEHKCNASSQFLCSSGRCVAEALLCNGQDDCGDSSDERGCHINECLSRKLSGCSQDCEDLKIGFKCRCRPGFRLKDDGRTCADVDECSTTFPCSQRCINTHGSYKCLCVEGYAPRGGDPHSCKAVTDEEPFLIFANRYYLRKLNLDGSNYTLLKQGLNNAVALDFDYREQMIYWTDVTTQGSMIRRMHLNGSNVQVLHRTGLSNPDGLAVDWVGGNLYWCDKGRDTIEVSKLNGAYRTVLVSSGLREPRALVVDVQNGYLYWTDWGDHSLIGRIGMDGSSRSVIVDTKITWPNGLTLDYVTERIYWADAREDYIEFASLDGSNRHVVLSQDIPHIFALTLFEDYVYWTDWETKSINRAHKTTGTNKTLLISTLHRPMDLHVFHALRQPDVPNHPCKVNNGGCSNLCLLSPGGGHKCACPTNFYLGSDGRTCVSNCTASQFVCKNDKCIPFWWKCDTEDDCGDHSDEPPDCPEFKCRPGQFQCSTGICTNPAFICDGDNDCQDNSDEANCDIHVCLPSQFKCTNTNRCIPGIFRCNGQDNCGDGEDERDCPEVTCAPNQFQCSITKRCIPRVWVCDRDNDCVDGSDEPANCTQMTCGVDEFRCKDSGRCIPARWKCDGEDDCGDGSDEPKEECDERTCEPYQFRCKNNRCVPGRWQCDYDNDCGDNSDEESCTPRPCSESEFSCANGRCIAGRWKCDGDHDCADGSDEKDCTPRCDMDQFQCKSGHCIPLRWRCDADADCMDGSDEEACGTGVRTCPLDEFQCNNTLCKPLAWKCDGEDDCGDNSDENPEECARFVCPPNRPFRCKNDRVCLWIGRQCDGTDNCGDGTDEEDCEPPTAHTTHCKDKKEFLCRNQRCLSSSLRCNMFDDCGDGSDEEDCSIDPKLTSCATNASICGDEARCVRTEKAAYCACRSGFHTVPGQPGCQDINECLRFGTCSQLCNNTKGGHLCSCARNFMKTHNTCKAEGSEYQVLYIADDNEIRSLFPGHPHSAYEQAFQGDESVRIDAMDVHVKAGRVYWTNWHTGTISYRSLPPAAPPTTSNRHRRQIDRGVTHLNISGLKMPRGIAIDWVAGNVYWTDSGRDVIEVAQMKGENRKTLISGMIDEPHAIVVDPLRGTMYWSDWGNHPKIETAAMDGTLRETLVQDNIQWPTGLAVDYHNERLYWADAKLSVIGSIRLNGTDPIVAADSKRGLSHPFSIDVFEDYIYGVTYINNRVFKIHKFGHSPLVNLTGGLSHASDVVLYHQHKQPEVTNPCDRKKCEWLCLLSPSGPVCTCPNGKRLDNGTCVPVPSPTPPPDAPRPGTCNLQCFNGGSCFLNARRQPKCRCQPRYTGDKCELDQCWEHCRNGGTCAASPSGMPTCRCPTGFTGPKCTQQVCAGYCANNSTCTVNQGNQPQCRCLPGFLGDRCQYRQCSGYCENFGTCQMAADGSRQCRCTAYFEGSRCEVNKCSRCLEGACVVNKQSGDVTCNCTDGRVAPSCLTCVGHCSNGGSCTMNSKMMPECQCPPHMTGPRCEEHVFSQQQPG
Described as above.

The experiment “Soluble LRP1 cluster II” addresses B1. The description is as above.

One may read the Kd as the constant that tells how readily two partners part at equilibrium. For the molecule B1, the Kd in experiment [1] is 3.49 nM; in experiment [2], 275 nM; in experiment [3], 318 nM; in experiment [4] it was 514 nM.
In general, koff refers to a measure of how fast the partners let go of each other. The kon is a measure of how fast the partners come together. A low value points to slower complex formation. Turning to B2, the Kd was found to be 1.28 nM with Soluble LRP1 cluster IV, 1.06 nM with Soluble LRP1 cluster III, 0.76 nM in experiment [5] and 1.09 nM with Soluble LRP1 cluster II. Also, the koff with Soluble LRP1 cluster IV amounted to 0.00147 s⁻¹; with Soluble LRP1 cluster III, 0.00308 s⁻¹; in experiment [5], 0.00105 s⁻¹; with Soluble LRP1 cluster II it was 0.00196 s⁻¹. In addition, the kon in the experiment with Soluble LRP1 cluster IV was 1.18e+06 M⁻¹ s⁻¹; in the experiment with Soluble LRP1 cluster III it was 2.95e+06 M⁻¹ s⁻¹; in experiment [5], 1.41e+06 M⁻¹ s⁻¹; with Soluble LRP1 cluster II, 2.2e+06 M⁻¹ s⁻¹.
As to B3, the Kd was 0.69 nM in experiment [1], 158 nM in experiment [2], 183 nM in experiment [3] and 222 nM in experiment [4].
